B1: Δ1–36 REEP5-EYFP (domain or fragment)
chain: not shown
notes: REEP5, human (NM_005669.4), lacking residues 1-36; source: C2C12 myoblasts, transfected, in lysate
B2: REEP5-EYFP (natural protein)
chain: not shown
notes: Receptor expression-enhancing protein 5 (REEP5), human (NM_005669.4), parent of the EYFP tagged truncation mutants; source: C2C12 myoblasts, transfected, in lysate
B3: CnVA-tagged (StrepII-6xHis, 3xFlag) REEP5 (natural protein)
chain: not shown
notes: Receptor expression-enhancing protein 5 (REEP5), human, subcloned from NM_005669.4 into pLD-puro-CnVA; also called CnVA-REEP5; source: HEK293, transfected, in lysate; nickel-His purification
B4: endogenous REEP5 (HEK293) (natural protein)
chain: not shown
notes: Receptor expression-enhancing protein 5 (REEP5), endogenous in HEK293 cells; source: endogenous, HEK293 lysate
B5: REEP5-V5-6xHis (natural protein)
chain: not shown
notes: REEP5 was fused to a V5 tag followed by a 6xHis tag; source: HEK293, transfected, in lysate

How the values were obtained:
[1] = target: the molecule itself; assay: immunoblot of oligomer bands after SDS-PAGE; C2C12 myoblasts transfected with EYFP tagged REEP5 and truncation mutants; SDS-resistant dimers
[2] = target: the molecule itself; assay: immunoblot of oligomer bands after SDS-PAGE; lysates and nickel-His eluate of transfected HEK293 cells; increasing DTT lowered the dimer band

| Protein | stoichiometry N [1] | stoichiometry N [2] |
| --- | --- | --- |
| B1 | 2 | – |
| B2 | 2 | – |
| B3 | – | 2 |
| B4 | – | 2 |
| B5 | – | 2 |

— publication PMC7031342, “REEP5 depletion causes sarco-endoplasmic reticulum vacuolization and cardiac functional defects” (Nature Communications, 2020)
